Assay [1] deals with dynamin GTPase activity. Particulars: biochemical assay of dynamin GTPase activity; cited from earlier work.
The target of assay [2] is T1, cNPF5Flu.
T1 chain: cyclo(YNPFEAGK(fluorescein))
In words: fluorescence polarization.

For assay [3], the target named is T2, cNPF4Flu.
T2 chain: cyclo(YNPFAEGK(fluorescein))
In words: fluorescence polarization.

Assay [4] deals with T3, cAPAFlu.
T3 chain: cyclo(YAPAEEGK(fluorescein))
The assay is described as follows: fluorescence polarization.

In assay [5] the target is T4, cNPF1Flu.
T4 chain: cyclo(YNPFEEGK(fluorescein))
The assay is described as follows: fluorescence polarization.

Assay [6] concerns the target T5, cNPF3Flu.
T5 chain: cyclo(YNPFEEK(fluorescein))
The assay is described as follows: fluorescence polarization.

In assay [7] the target is T6, cNPF2Flu (reading uncertain).
T6 chain: cyclo(YNPFEE[code γ]K(fluorescein))
The assay is described as follows: fluorescence polarization.

The target in assay [8] is T7, cNPF6Flu.
T7 chain: cyclo(YNPFEQGK(fluorescein))
In words: fluorescence polarization.

In assay [9] the target is T8, cNPF1 (head-to-tail cyclic).
T8 chain: YNPFEEGG
The assay is described as follows: fluorescence polarization competition.

Assay [10] concerns the target T9, cNPF1B (SMILES CC(=O)NCCCC[C@@H]1NC(=O)CNC(=O)[C@H](CCC(=O)O)NC(=O)[C@H](CCC(=O)O)NC(=O)[C@H](Cc2ccccc2)NC(=O)[C@@H]2CCCN2C(=O)[C@H](CC(N)=O)NC(=O)[C@H](Cc2ccc(O)cc2)NC1=O).
T9 chain: cyclo(YNPFEEGK(Ac))
In words: fluorescence polarization competition.

The target of assay [11] is T10, cAPA (head-to-tail cyclic).
T10 chain: YAPAEEGG
In words: fluorescence polarization competition.

Assay [12] deals with T1, cNPF5Flu. In words: fluorescence polarization.
Assay [13] addresses T2, cNPF4Flu. In words: fluorescence polarization.
Assay [14] deals with T4, cNPF1Flu. In words: fluorescence polarization.
The target in assay [15] is T5, cNPF3Flu. The assay is described as follows: fluorescence polarization.
The target in assay [16] is T6, cNPF2Flu. The assay is described as follows: fluorescence polarization.
Assay [17] addresses T7, cNPF6Flu. In words: fluorescence polarization.
Assay [18] deals with T8, cNPF1. The assay is described as follows: ITC.

We go through two molecules from publication PMC4116148 (Biochemistry, 2014).

Where two headings read alike, the source gives them in different places. Non-standard residues stand in square brackets, D forms with d. fluorescein = fluorescein: fluorescein label on the Lys side chain; code γ = not defined here A value given as a limit tells only on which side of the number the result lay.

On to `O=C(N/N=C/c1ccc(O)c(O)c1)c1cc2ccccc2cc1O` [dynasore], for which the IC50 in assay [1] was ~15 µM.

B1: EHD1 EH domain EH (protein)
chain: VGKDKPTYDEIFYTLSPVNGKITGANAKKEMVKSKLPNTVLGKIWKLADVDKDGLLDDEEFALANHLIKVKLEGHELPADLPPHLVPPSKRRHE
Regarding B1, the Kd in assay [2] is 8.7 µM; in [3], 17.4 µM; in [4] it was > 67 µM; in assay [5] it was 3.3 µM; in assay [6], 11.3 µM; in [7] it was 4.5 µM. Also, the Kd in [8] came out at 12.8 µM; in assay [12] it was 28.3 µM; in assay [13], 46.7 µM; in [14], 16.8 µM; in assay [15] it was 57.8 µM; in assay [16], 20.5 µM. In addition, the Kd in assay [17] amounted to 34 µM; in assay [18] it was 9.9 µM. For the same molecule, the figures for the concentration for half-maximal inhibition (IC50) in assay [9], in [10] and in assay [11] were 49.2 µM, 100 µM and > 450 µM, respectively.
